How the values were obtained:
HeLa Kyoto [1] = assay: solubility in G1/S (NP-40 vs SDS abundance) (log2 ratio); higher = more soluble; conditions: cell cycle stage: G1/S
HeLa Kyoto [2] = assay: melting temperature (median over replicates), in situ; higher = more thermally stable
HeLa Kyoto [3] = assay: solubility change mitosis vs G1/S (difference of NP-40 vs SDS log2 ratios) (log2 ratio difference); higher = more soluble in mitosis
HeLa Kyoto [4] = assay: thermal stability score vs G1/S (z-score of summed log2 fold changes over temperatures); higher = more thermally stable than in G1/S
[5] = cell cycle stage: early G1 (4.5 h after nocodazole release)
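For melting temperature (median over replicates), in situ in this document: HeLa Kyoto cells synchronized by double thymidine or nocodazole block, proteins quantified by TMT10plex mass spectrometry, three independent biological replicates.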
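For solubility change mitosis vs G1/S (difference of NP-40 vs SDS log2 ratios) in this document: synchronized HeLa Kyoto cells (double thymidine block for G1/S, nocodazole release for mitosis), protein amounts in NP-40 versus SDS lysates quantified by mass spectrometry, three biological replicates.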
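For solubility in G1/S (NP-40 vs SDS abundance) in this document: HeLa Kyoto cells arrested at G1/S by double thymidine block, proteins quantified by TMT10plex mass spectrometry in mild NP-40 versus SDS extracts, three biological replicates.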
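For thermal stability score vs G1/S (z-score of summed log2 fold changes over temperatures) in this document: synchronized HeLa Kyoto cells, proteins quantified by TMT10plex mass spectrometry, three biological replicates, mitosis taken 0.5 h after nocodazole release, G1/S directly after double thymidine block.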

| Substance | solubility in G1/S (log2) (HeLa Kyoto [1]) | melting temperature (HeLa Kyoto [2]; cell cycle stage: G1/S) | melting temperature (HeLa Kyoto [2]; cell cycle stage: mitosis) | solubility change mitosis (log2) (HeLa Kyoto [3]) | thermal stability score (HeLa Kyoto [4]; [5]) | thermal stability score (HeLa Kyoto [4]; cell cycle stage: mitosis) |
| --- | --- | --- | --- | --- | --- | --- |
| MLWFQGAIPAAIATAKRSGAVFVVFVAGDDEQSTQMAASWEDDKVTEASSNSFVAIKIDTKSEACLQFSQIYPVVCVPSSFFIGDSGIPLEVIAGSVSADELVTRIHKVRQMHLLKSETSVANGSQSESSVSTPSASFEPNNTCENSQSRNAELCEIPPTSDTKSDTATGGESAGHATSSQEPSGCSDQRPAEDLNIRVERLTKKLEERREEKRKEEEQREIKKEIERRKTGKEMLDYKRKQEEELTKRMLEERNREKAEDRAARERIKQQIALDRAERAARFAKTKEEVEAAKAAALLAKQAEMEVKRESYARERSTVARIQFRLPDGSSFTNQFPSDAPLEEARQFAAQTVGNTYGNFSLATMFPRREFTKEDYKKKLLDLELAPSASVVLLPAGRPTASIVHSSSGDIWTLLGTVLYPFLAIWRLISNFLFSNPPPTQTSVRVTSSEPPNPASSSKSEKREPVRKRVLEKRGDDFKKEGKIYRLRTQDDGEDENNTWNGNSTQQM [UBXN4] | -0.0609 | 51.8 °C | 52.1 °C | -0.108 | -0.0363 | 0.462 |
| MAPKFPDSVEELRAAGNESFRNGQYAEASALYGRALRVLQAQGSSDPEEESVLYSNRAACHLKDGNCRDCIKDCTSALALVPFSIKPLLRRASAYEALEKYPMAYVDYKTVLQIDDNVTSAVEGINRMTRALMDSLGPEWRLKLPSIPLVPVSAQKRWNSLPSENHKEMAKSKSKETTATKNRVPSAGDVEKARVLKEEGNELVKKGNHKKAIEKYSESLLCSNLESATYSNRALCYLVLKQYTEAVKDCTEALKLDGKNVKAFYRRAQAHKALKDYKSSFADISNLLQIEPRNGPAQKLRQEVKQNLH [TOMM34] | 0.584 | 47.4 °C | 48.8 °C | 0.108 | 0.535 | 1.04 |
| MEFAAENEGKSGGGLHSVAEGVRLSPEPGREGVRDLAGAEEFGGGEEGTGLTGIKEIGDGEEGSGQRPEEIPMDLTVVKQEIIDWPGTEGRLAGQWVEQEVEDRPEVKDENAGVLEVKQETDSSLVVKEAKVGEPEVKEEKVKEEVMDWSEVKEEKDNLEIKQEEKFVGQCIKEELMHGECVKEEKDFLKKEIVDDTKVKEEPPINHPVGCKRKLAMSRCETCGTEEAKYRCPRCMRYSCSLPCVKKHKAELTCNGVRDKTAYISIQQFTEMNLLSDYRFLEDVARTADHISRDAFLKRPISNKYMYFMKNRARRQGINLKLLPNGFTKRKENSTFFDKKKQQFCWHVKLQFPQSQAEYIEKRVPDDKTINEILKPYIDPEKSDPVIRQRLKAYIRSQTGVQILMKIEYMQQNLVRYYELDPYKSLLDNLRNKVIIEYPTLHVVLKGSNNDMKVLHQVKSESTKNVGNEN [ZNHIT6] | 0.0397 | 48.4 °C | 50.2 °C | -0.116 | 1.3 | 2.06 |
| MDGEEQQPPHEANVEPVVPSEASEPVPRVLSGDPQNLSDVDAFNLLLEMKLKRRRQRPNLPRTVTQLVAEDGSRVYVVGTAHFSDDSKRDVVKTIREVQPDVVVVELCQYRVSMLKMDESTLLREAQELSLEKLQQAVRQNGLMSGLMQMLLLKVSAHITEQLGMAPGGEFREAFKEASKVPFCKFHLGDRPIPVTFKRAIAALSFWQKVRLAWGLCFLSDPISKDDVERCKQKDLLEQMMAEMIGEFPDLHRTIVSERDVYLTYMLRQAARRLELPRASDAEPRKCVPSVVVGVVGMGHVPGIEKNWSTDLNIQEIMTVPPPSVSGRVSRLAVKAAFFGLLGYSLYWMGRRTASLVLSLPAAQYCLQRVTEARHK [TRABD] | 0.184 | 52.2 °C | 50.2 °C | 0.0374 | 0.0844 | 0.106 |
| MAVTALAARTWLGVWGVRTMQARGFGSDQSENVDRGAGSIREAGGAFGKREQAEEERYFRAQSREQLAALKKHHEEEIVHHKKEIERLQKEIERHKQKIKMLKHDD [ATPIF1] | 0.903 | 56.8 °C | 56.9 °C | 0.408 | 3.16 | -2.08 |
| MGGTTSTRRVTFEADENENITVVKGIRLSENVIDRMKESSPSGSKSQRYSGAYGASVSDEELKRRVAEELALEQAKKESEDQKRLKQAKELDRERAAANEQLTRAILRERICSEEERAKAKHLARQLEEKDRVLKKQDAFYKEQLARLEERSSEFYRVTTEQYQKAAEEVEAKFKRYESHPVCADLQAKILQCYRENTHQTLKCSALATQYMHCVNHAKQSMLEKGG [CHCHD3] | 0.229 | 54.6 °C | 54.2 °C | 0.291 | -2.54 | -6 |
| MAELDPFGAPAGAPGGPALGNGVAGAGEEDPAAAFLAQQESEIAGIENDEAFAILDGGAPGPQPHGEPPGGPDAVDGVMNGEYYQESNGPTDSYAAISQVDRLQSEPESIRKWREEQMERLEALDANSRKQEAEWKEKAIKELEEWYARQDEQLQKTKANNRVADEAFYKQPFADVIGYVTNINHPCYSLEQAAEEAFVNDIDESSPGTEWERVARLCDFNPKSSKQAKDVSRMRSVLISLKQAPLVH [CLTA] | 0.31 | 54.7 °C | – | 0.362 | -6.01 | -4.14 |
| MSGELPPNINIKEPRWDQSTFIGRANHFFTVTDPRNILLTNEQLESARKIVHDYRQGIVPPGLTENELWRAKYIYDSAFHPDTGEKMILIGRMSAQVPMNMTITGCMMTFYRTTPAVLFWQWINQSFNAVVNYTNRSGDAPLTVNELGTAYVSATTGAVATALGLNALTKHVSPLIGRFVPFAAVAAANCINIPLMRQRELKVGIPVTDENGNRLGESANAAKQAITQVVVSRILMAAPGMAIPPFIMNTLEKKAFLKRFPWMSAPIQVGLVGFCLVFATPLCCALFPQKSSMSVTSLEAELQAKIQESHPELRRVYFNKGL [SFXN1] | 0.371 | 54.4 °C | 54.8 °C | -0.0506 | -0.303 | -0.959 |
| MGVPAFFRWLSRKYPSIIVNCVEEKPKECNGVKIPVDASKPNPNDVEFDNLYLDMNGIIHPCTHPEDKPAPKNEDEMMVAIFEYIDRLFSIVRPRRLLYMAIDGVAPRAKMNQQRSRRFRASKEGMEAAVEKQRVREEILAKGGFLPPEEIKERFDSNCITPGTEFMDNLAKCLRYYIADRLNNDPGWKNLTVILSDASAPGEGEHKIMDYIRRQRAQPNHDPNTHHCLCGADADLIMLGLATHEPNFTIIREEFKPNKPKPCGLCNQFGHEVKDCEGLPREKKGKHDELADSLPCAEGEFIFLRLNVLREYLERELTMASLPFTFDVERSIDDWVFMCFFVGNDFLPHLPSLEIRENAIDRLVNIYKNVVHKTGGYLTESGYVNLQRVQMIMLAVGEVEDSIFKKRKDDEDSFRRRQKEKRKRMKRDQPAFTPSGILTPHALGSRNSPGSQVASNPRQAAYEMRMQNNSSPSISPNTSFTSDGSPSPLGGIKRKAEDSDSEPEPEDNVRLWEAGWKQRYYKNKFDVDAADEKFRRKVVQSYVEGLCWVLRYYYQGCASWKWYYPFHYAPFASDFEGIADMPSDFEKGTKPFKPLEQLMGVFPAASGNFLPPSWRKLMSDPDSSIIDFYPEDFAIDLNGKKYAWQGVALLPFVDERRLRAALEEVYPDLTPEETRRNSLGGDVLFVGKHHPLHDFILELYQTGSTEPVEVPPELCHGIQGKFSLDEEAILPDQIVCSPVPMLRDLTQNTVVSINFKDPQFAEDYIFKAVMLPGARKPAAVLKPSDWEKSSNGRQWKPQLGFNRDRRPVHLDQAAFRTLGHVMPRGSGTGIYSNAAPPPVTYQGNLYRPLLRGQAQIPKLMSNMRPQDSWRGPPPLFQQQRFDRGVGAEPLLPWNRMLQTQNAAFQPNQYQMLAGPGGYPPRRDDRGGRQGYPREGRKYPLPPPSGRYNWN [XRN2] | -0.126 | 50.2 °C | 50.4 °C | 0.128 | 1.15 | 0.632 |
| SLC15A4 | 0.0784 | 55.4 °C | 56.5 °C | -0.171 | -2.84 | -2.51 |
| NIPBL | -0.446 | 47.3 °C | 49.3 °C | 0.263 | 2.24 | 6.45 |
| MAAVDSFYLLYREIARSCNCYMEALALVGAWYTARKSITVICDFYSLIRLHFIPRLGSRADLIKQYGRWAVVSGATDGIGKAYAEELASRGLNIILISRNEEKLQVVAKDIADTYKVETDIIVADFSSGREIYLPIREALKDKDVGILVNNVGVFYPYPQYFTQLSEDKLWDIINVNIAAASLMVHVVLPGMVERKKGAIVTISSGSCCKPTPQLAAFSASKAYLDHFSRALQYEYASKGIFVQSLIPFYVATSMTAPSNFLHRCSWLVPSPKVYAHHAVSTLGISKRTTGYWSHSIQFLFAQYMPEWLWVWGANILNRSLRKEALSCTA [HSDL1] | -0.127 | 57.5 °C | 54.3 °C | -0.155 | -1.62 | -2.08 |
| MEQPPAPKSKLKKLSEDSLTKQPEEVFDVLEKLGEGSYGSVFKAIHKESGQVVAIKQVPVESDLQEIIKEISIMQQCDSPYVVKYYGSYFKNTDLWIVMEYCGAGSVSDIIRLRNKTLIEDEIATILKSTLKGLEYLHFMRKIHRDIKAGNILLNTEGHAKLADFGVAGQLTDTMAKRNTVIGTPFWMAPEVIQEIGYNCVADIWSLGITSIEMAEGKPPYADIHPMRAIFMIPTNPPPTFRKPELWSDDFTDFVKKCLVKNPEQRATATQLLQHPFIKNAKPVSILRDLITEAMEIKAKRHEEQQRELEEEEENSDEDELDSHTMVKTSVESVGTMRATSTMSEGAQTMIEHNSTMLESDLGTMVINSEDEEEEDGTMKRNATSPQVQRPSFMDYFDKQDFKNKSHENCNQNMHEPFPMSKNVFPDNWKVPQDGDFDFLKNLSLEELQMRLKALDPMMEREIEELRQRYTAKRQPILDAMDAKKRRQQNF [STK3] | 0.0428 | 53 °C | 53.3 °C | -0.13 | 1.31 | 1.36 |
| MAQPGPASQPDVSLQQRVAELEKINAEFLRAQQQLEQEFNQKRAKFKELYLAKEEDLKRQNAVLQAAQDDLGHLRTQLWEAQAEMENIKAIATVSENTKQEAIDEVKRQWREEVASLQAVMKETVRDYEHQFHLRLEQERTQWAQYRESAEREIADLRRRLSEGQEEENLENEMKKAQEDAEKLRSVVMPMEKEIAALKDKLTEAEDKIKELEASKVKELNHYLEAEKSCRTDLEMYVAVLNTQKSVLQEDAEKLRKELHEVCHLLEQERQQHNQLKHTWQKANDQFLESQRLLMRDMQRMEIVLTSEQLRQVEELKKKDQEDDEQQRLNKRKDHKKADVEEEIKIPVVCALTQEESSAQLSNEEEHLDSTRGSVHSLDAGLLLPSGDPFSKSDNDMFKDGLRRAQSTDSLGTSGSLQSKALGYNYKAKSAGNLDESDFGPLVGADSVSENFDTASLGSLQMPSGFMLTKDQERAIKAMTPEQEETASLLSSVTQGMESAYVSPSGYRLVSETEWNLLQKEVHNAGNKLGRRCDMCSNYEKQLQGIQIQEAETRDQVKKLQLMLRQANDQLEKTMKDKQELEDFIKQSSEDSSHQISALVLRAQASEILLEELQQGLSQAKRDVQEQMAVLMQSREQVSEELVRLQKDNDSLQGKHSLHVSLQQAEDFILPDTTEALRELVLKYREDIINVRTAADHVEEKLKAEILFLKEQIQAEQCLKENLEETLQLEIENCKEEIASISSLKAELERIKVEKGQLESTLREKSQQLESLQEIKISLEEQLKKETAAKATVEQLMFEEKNKAQRLQTELDVSEQVQRDFVKLSQTLQVQLERIRQADSLERIRAILNDTKLTDINQLPET [RABEP1] | 0.412 | 51 °C | 50.4 °C | -0.0841 | -1 | -0.882 |

Reference: the supplement of paper PMC5998384
